9 molecules from patent US20260347506 (published 2026) can be followed below.

Residue numbers refer to the chain shown, from its start. Where “and” joins values, the source holds several entries; their conditions need not be identical. Equal values may be shown once.

The target of experiment [1] is T1, human IgE (human, UniProt P01854).
T1 chain: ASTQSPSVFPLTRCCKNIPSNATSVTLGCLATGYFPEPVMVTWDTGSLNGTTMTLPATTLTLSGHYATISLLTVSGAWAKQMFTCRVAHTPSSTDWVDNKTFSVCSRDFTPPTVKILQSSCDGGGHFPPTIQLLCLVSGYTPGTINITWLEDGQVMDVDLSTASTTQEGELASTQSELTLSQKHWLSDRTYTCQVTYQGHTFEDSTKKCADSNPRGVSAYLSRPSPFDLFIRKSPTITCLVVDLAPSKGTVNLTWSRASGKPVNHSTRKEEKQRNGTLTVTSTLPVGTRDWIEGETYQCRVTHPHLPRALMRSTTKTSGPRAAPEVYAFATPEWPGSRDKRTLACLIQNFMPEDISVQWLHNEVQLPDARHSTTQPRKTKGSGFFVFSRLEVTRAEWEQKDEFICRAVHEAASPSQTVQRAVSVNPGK
In words: competition ELISA, pH 6.0. (An ELISA detects its analyte on a solid surface through an enzyme-linked reagent.)

For experiment [2], the target named is T1, human IgE. The experiment can be described thus: competition SPR, pH 7.4.
Experiment [3] addresses T1, human IgE. In words: competition ELISA, pH 7.4.
The target of experiment [4] is T1, human IgE. In words: competition SPR, pH 6.0.
Experiment [5] concerns the target T1, human IgE. In words: competition ELISA, pH 6.0.
The target in experiment [6] is T1, human IgE. In words: competition ELISA, pH 7.4.
In experiment [7] the target is T1, human IgE. The experiment can be described thus: competition SPR, pH 6.0.
Experiment [8] addresses T1, human IgE. In words: competition SPR, pH 7.4.
The target in experiment [9] is T1, human IgE. In words: competition SPR, pH 5.5.
Experiment [10] concerns the target T1, human IgE. The experiment can be described thus: competition SPR, pH 7.4.
Experiment [11] has as its target T1, human IgE. In words: ELISA, pH 7.4.
The target of experiment [12] is T1, human IgE. In words: competition ELISA.
Experiment [13] concerns the target T1, human IgE. In words: ELISA, pH 5.5.
Experiment [14] has as its target T1, human IgE. In words: SPR, pH 6.0. (In general: In SPR one partner is held on a chip, and binding of the other changes the refractive index at the surface.)
For experiment [15], the target named is T1, human IgE. The experiment can be described thus: SPR, pH 7.4.
For experiment [16], the target named is T1, human IgE. In words: SPR.

B1: 13E4 (antibody, V domains shown)
VH: ELQLVESGGGLVQPGGSLRLSCAASGFTFSSYVMSWVRQAPGKGLEWVSSIYHDGSHTYYADFVKGRFTISRDNAKNTLYLQMNSLKSEDTAVYYCASGTSYSGSYYYTDPFFGSWGQGTQVTVSS
VL: HSAVTQPSALSVTLGQTAKITCQGGSLGSNYAYWYQQKPGQAPVLVIYDDDSRPSGIPERFSGSSSGGTATLTISGAQAEDEGDYYCQSADSNGNAVFGGGTHLTVL
Consider B1, for which the IC50 in experiment [1] came to 12.9 nM; in experiment [2], 1.62 nM; in experiment [3], 10.3 nM; in experiment [4] it was 1.54 nM; in experiment [5] it was 0.0114 µg/mL; in [6] it was 0.00682 µg/mL. Further, the IC50 in experiment [7] worked out at 2.5 µg/mL; in experiment [8] it was 2.3 µg/mL.

B2: 18E2_VH_S35H_VL_Y34H (18E2His2) (antibody, V domains shown)
VH: B1 VH with E1Q, S35H
VL: NFMLTQPSALSVTLGQTARITCQGDRLGSRYIHWYQQKPPQAPVLVIHDDDRRPSGIPERFSGSSSGGTATLTISGAQAEDDGDYYCQSADSSGNPVFGGGTHLTVL
For the molecule B2, the IC50 in experiment [9] is 9.86 µg/mL; in [5], 77.2 µg/mL; in experiment [6] it was 2.48 µg/mL; in experiment [7] it was 6310 µg/mL; in experiment [8], 6 µg/mL; in [10] it was 1.56 µg/mL.

B3: 18E2His2-hIgG1-ABDEG (antibody, V domains shown)
VH: B1 VH with E1Q, S35H
VL: B2 VL
With B3, the IC50 came out at 26.6 µg/mL in experiment [5], 1.49 µg/mL in experiment [6], 7320 µg/mL in [7] and 5.8 µg/mL in [8].

B4: 13E4-hIgG1-ABDEG (antibody, V domains shown)
VH: B1 VH
VL: B1 VL
B4: the IC50 was 0.0106 µg/mL in experiment [5], 0.0065 µg/mL in experiment [6], 3.2 µg/mL in experiment [7] and 3 µg/mL in [8].

B5: 18B9His-hIgG1-ABDEG (antibody, V domains shown)
VH: QVQLVESGGGLVQPGGSLRLSCAASGFTFSSYVMSWVRQAPGKGLEWVSSIYSDGSHTYYADSVKGRFTISRDNAKNTLYLQMNSLKSEDTAVYYCAKNLEHYSGSYYYTDPRYDYWGQGTQVTVSS
VL: B1 VL with H1S, V4L, N30S, A32V, Y33H, Y48H, D50G, G83D, N93S
On to B5, for which the concentration for half-maximal inhibition (IC50) in experiment [5] came to 2.55 µg/mL; in experiment [6], 0.13 µg/mL; in experiment [7] it was 52.9 µg/mL; in experiment [8], 2.9 µg/mL.

B6: VL18B9_Y49H (18B9His) (antibody, V domains shown)
VH: B5 VH
VL: B1 VL with H1S, V4L, N30S, A32V, Y33H, Y48H, D50G, G83D, N93S
For the molecule B6, the IC50 worked out at 4.06 µg/mL in experiment [9]; 3.02 µg/mL in [5]; 0.19 µg/mL in experiment [6]; 58.5 µg/mL in experiment [7]; 2.7 µg/mL in experiment [8]; 0.749 µg/mL in experiment [10].

B7: 18E2_VLY34H_MG (18E2VL) (antibody, V domains shown)
VH: QLLESGGGLVQPGGSLRLSCAASGFTFSSYVMSWVRQAPGKGLEWVSSIYHDGSHTYYADFVKGRFTISRDNSKNTLYLQMNSLRAEDTAVYYCAKGTSYSGSYYYTDPFFGSWGQGTLVTVSS
VL: SSELTQDPAVSVALGQTVRITCQGDRLGSRYIHWYQQKPGQAPVLVIYDDDRRPSGIPDRFSGSSSGNTASLTITGAQAEDEADYYCQSADSSGNPVFGGGTQLTVL
Regarding B7, the EC50 is 0.02 µg/mL and 0.0163 µg/mL in experiment [11]; 0.0269 µg/mL and 0.0323 µg/mL in experiment [13]. For the same molecule, the concentration for half-maximal inhibition (IC50) in experiment [12] came to 6.06 nM.

B8: 18E2VLHis MG hIgG1-ABDEG (antibody, V domains shown)
VH: B7 VH
VL: B7 VL
On to B8, for which the Kd in [14] worked out at 205 nM; in [15], 5.91 nM.

B9: OMA VH15-VL3 (antibody, V domains shown)
VH: EVQLVESGGGLVQPGGSLRLSCAVSGYSITSGHRWEWIRQAPGKGLEWVASIHYDGSTNYNPSVKGRITISRDDSKNTFYLQMNSLRAEDTAVYYCARATHYFGHWHFAVWGQGTLVTVSS
VL: DIQLTQSPSSLSASVGDRVTITCRASQSVDYDGDSYMNWYQQKPGKAPKLLIEWGSYLRSGVPSRFSGSGSGTDFTLTISSLQPEDFATYYCQQNAEDPYTFGQGTKVEIK
B9 had a Kd in [16] of 0.0874 pM.

As usually defined, the IC50 is the concentration at which inhibition is half-maximal. Low values mean greater potency in that assay, high ones weaker potency in that assay. Broadly, the EC50 is the concentration giving half of the maximal effect. Higher therefore signals a need for much substance. The Kd is the free concentration of one partner at which half of the binding sites on the other are occupied at equilibrium, for simple one-to-one binding. A low value points to higher affinity.
